Test results from patent US9988424 (DUKE UNIVERSITY, dated 2018).

Legend:
B. 684-6 gp140C = assay: ELISA, OD405
B.63521 gp140C = assay: ELISA, OD405
B.63521_V1V2 Tags = molecular target: T1, B.63521_V1V2 Tags; assay: ELISA, OD405
T1 Env construct: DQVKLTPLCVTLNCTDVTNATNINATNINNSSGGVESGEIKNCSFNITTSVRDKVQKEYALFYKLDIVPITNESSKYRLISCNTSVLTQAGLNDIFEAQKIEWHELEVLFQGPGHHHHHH

AE.A244 V1V2 Tags = AE.A244 V1V2 Tags (HIV-1); assay: ELISA
AE.A244 gD+ gp120 N160K = molecular target: T2, AE.A244 gD+ gp120 N160K (HIV-1); assay: ELISA
T2 construct: domain: gp120

B1: PG16 reverted unmutated ancestor antibody (antibody, V domains shown)
VH: QVQLVESGGGVVQPGRSLRLSCAASGFTFSSYGMHWVRQAPGKGLEWVAVISYDGSNKYYADSVKGRFTISRDNSKNTLYLQMNSLRAEDTAVYYCAREAGGPIWHDDVKYYDFNDGYYYYYYMDVWGKGTTVTVSS
VL: QSALTQPASVSGSPGQSITISCTGTSSDVGSYNLVSWYQQHPGKAPKLMIYEVSKRPSGVSNRFSGSKSGNTASLTISGLQAEDEADYYCCSLTDRSHRIFGGGTKLTVL
notes: also called PG16 RUA; PG16_RUA
B1: no binding (tested: 10 ug/ml) (B. 684-6 gp140C); no binding (tested: 10 ug/ml) (B.63521 gp140C); no binding (tested: 10 ug/ml) (B.63521_V1V2 Tags).

B2: 697D (antibody, V domains shown)
VH: QVQLVQSGAEVKKPGSSVKVSCKASGGNFNTYTISWVRQAPGQGLEWMGRIIPIFGIVNPAQKFPGRVTINVDKSTNTAYMELSSLRSEDTAVYYCATSGVGLHFGYFDYWGQGTQVTVSS
VL: QSVLTQPPSVSGAPGQRVTISCTGSSSNIGAHYDVHWYQQLPGTAPKLLIYGNSNRPSGVPDRFSGSKSGTSASLAITGLQAEDEADYYCQSYDSSLSGYVFGTGTKVTVL
notes: also called mAb 697D; V2 conformational mAb 697D
For B2, the “EC50 (read off the curve)” value (AE.A244 V1V2 Tags) was about 0.1 µg/mL.

B3: CH59 (antibody, V domains shown)
VH: EVQLVESGGGLVQPGRSLRLSCAASGFTFDDGAMHWVRQAPGKGLEWVSGISWNSNIIAYADSVKGRFTISRDNAKNSLYLEMNSLRVEDTALYYCAKDSPRGELPLNYWGQGTLVTVSS
VL: SYELTQPPSVSVSPGQTARITCSGDALPKNYAYWYQQKSGQAPVLVIYEDSKRPSGIPERFSGSSSGTMATLTISGAQVEDEADYYCYSTDSSGNHRVFGGGTKLTVL
notes: also called mAb CH59
Binder B3 has an EC50 (AE.A244 gD+ gp120 N160K) of 0.03 nM.
